Measured values as given in US20200407442A1.
Changes are numbered by the printed parent chain. Read-outs that look alike come from different tables or passages of the source. Each block holds one binder with its values, some of them ahead of it.

Key:
[1] = target: full-length human LAG-3 on cells (human) (UniProt P18627); assay: FACS on human LAG-3 transfectant cells
[2] = target: mFc-tagged LAG-3 protein (human) (UniProt P18627); assay: FACS competition: blocks mFc-tagged LAG-3 binding to MHC-II on Raji cells
[3] = target: full-length cynomolgus LAG-3 on cells (cynomolgus); assay: FACS on cynomolgus LAG-3-expressing 293F cells (target not labelled in the table)
Target sequence in this assay (P18627 other isoform, or with tags, fused parts or gaps limits assumed, form in doubt): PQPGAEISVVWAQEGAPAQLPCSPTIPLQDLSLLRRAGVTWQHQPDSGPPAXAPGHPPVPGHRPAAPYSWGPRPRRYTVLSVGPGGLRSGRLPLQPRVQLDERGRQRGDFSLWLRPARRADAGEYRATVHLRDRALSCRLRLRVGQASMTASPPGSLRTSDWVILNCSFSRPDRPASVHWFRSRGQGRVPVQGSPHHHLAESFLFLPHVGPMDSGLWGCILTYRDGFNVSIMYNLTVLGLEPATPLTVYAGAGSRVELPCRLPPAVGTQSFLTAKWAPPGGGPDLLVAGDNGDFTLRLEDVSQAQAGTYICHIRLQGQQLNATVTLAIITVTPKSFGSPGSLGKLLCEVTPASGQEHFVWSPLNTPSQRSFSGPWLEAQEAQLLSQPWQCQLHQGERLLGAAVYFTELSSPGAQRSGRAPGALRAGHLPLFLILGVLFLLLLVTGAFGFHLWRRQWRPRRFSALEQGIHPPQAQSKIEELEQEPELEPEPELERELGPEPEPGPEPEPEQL

[4] = target: human LAG-3 protein (SPR analyte) (human) (UniProt P18627); assay: SPR Biacore 8K, antibody captured by anti-human Fc, LAG-3 as analyte
[5] = target: full-length human LAG-3 on cells (human) (UniProt P18627); assay: FACS affinity on Flp-In-293 cells expressing human LAG-3
[6] = target: mFc-tagged LAG-3 protein (human) (UniProt P18627); assay: ELISA competition: blocks mFc-tagged LAG-3 binding to coated Galectin-3
[7] = target: mFc-tagged LAG-3 protein (human) (UniProt P18627); assay: ELISA competition: blocks mFc-tagged LAG-3 binding to coated LSECtin
[8] = target: full-length human LAG-3 on cells (human) (UniProt P18627); assay: cell-based or functional assay
[9] = target: full-length cynomolgus LAG-3 on cells (cynomolgus); assay: FACS on cynomolgus LAG-3-expressing 293F cells (target not labelled in the table); remark: listed apart in the source
Target sequence in this assay (P18627 other isoform, or with tags, fused parts or gaps limits assumed, form in doubt): as above

Sequence of mFc-tagged LAG-3 protein (human) (P18627 30-450): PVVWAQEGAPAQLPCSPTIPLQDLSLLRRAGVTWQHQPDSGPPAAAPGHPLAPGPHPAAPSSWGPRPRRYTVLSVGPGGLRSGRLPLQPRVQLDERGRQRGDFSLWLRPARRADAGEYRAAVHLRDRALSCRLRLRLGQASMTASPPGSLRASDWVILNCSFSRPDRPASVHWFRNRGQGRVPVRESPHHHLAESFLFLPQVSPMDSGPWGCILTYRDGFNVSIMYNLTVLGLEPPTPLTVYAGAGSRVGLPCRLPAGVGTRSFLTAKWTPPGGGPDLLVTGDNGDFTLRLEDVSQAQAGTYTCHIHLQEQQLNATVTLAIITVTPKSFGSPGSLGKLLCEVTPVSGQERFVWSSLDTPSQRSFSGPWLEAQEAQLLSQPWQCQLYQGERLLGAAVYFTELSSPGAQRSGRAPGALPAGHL
Sequence of human LAG-3 protein (SPR analyte) (human) (P18627 30-450 limits assumed): as the sequence (P18627 30-450) above
Sequence of full-length human LAG-3 on cells (human) (P18627 23-525 limits assumed): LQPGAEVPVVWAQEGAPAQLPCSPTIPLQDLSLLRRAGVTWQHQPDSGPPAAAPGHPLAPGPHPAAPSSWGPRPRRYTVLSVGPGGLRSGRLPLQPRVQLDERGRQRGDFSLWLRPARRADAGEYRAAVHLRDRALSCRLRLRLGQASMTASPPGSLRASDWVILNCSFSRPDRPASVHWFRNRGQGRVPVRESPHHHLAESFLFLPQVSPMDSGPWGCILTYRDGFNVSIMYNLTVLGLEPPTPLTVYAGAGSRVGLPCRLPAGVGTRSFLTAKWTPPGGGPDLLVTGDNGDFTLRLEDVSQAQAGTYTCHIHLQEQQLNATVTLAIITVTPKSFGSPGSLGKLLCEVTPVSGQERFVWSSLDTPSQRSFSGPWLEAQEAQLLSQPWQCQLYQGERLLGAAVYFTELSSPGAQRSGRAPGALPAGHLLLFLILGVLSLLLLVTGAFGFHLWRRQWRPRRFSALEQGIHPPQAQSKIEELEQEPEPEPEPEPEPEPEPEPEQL

EC50 [1]: 0.61 nM
EC50 [2]: 1.25 nM
EC50 [3]: 2.65 nM
Kd [4]: 0.497 nM
koff [4]: 0.000106 s⁻¹
kon [4]: 213000 M⁻¹ s⁻¹
Kd [5]: 0.58 nM
EC50 [6]: 0.79 nM
EC50 [7]: 0.59 nM
EC50, IL-2 luciferase reporter gene assay (Jurkat cells expressing human LAG-3 with Raji cells and SEE) [8]: 2.65 nM
B1: BMK7 (antibody, INN chains, looked up, V domains shown)
VH: QVQLVESGGGVVQPGRSLRLSCVASGFTFSSYGMHWVRQAPGKGLEWVAIIWYDGSNKYYADSVKGRFTISRDNSKNTQYLQMNSLRAEDTAVYYCASVATSGDFDYYGMDVWGQGTTVTVSS
VL: EIVLTQSPATLSLSPGERTTLSCRASQRISTYLAWYQQKPGQAPRLLIYDASKRATGIPARFSGSGSGTGFTLTISSLEPEDFAVYYCQQRSNWPLTFGGGTKVEIK

EC50 [9]: 4.01 nM
B2: 1.53.3-uAb-IgG4k (antibody, V domains shown)
VH: QVQLQQWGAGLLKPSETLSLTCGVYGGSFSGYYWSWIRQPPGMGLEWIGEINHRGNTNYNPSLKSRVTISEDTSKNQFSLRLSSVTAADTAVYFCTRGEDYSDYDYYGDFWGQGTLVTVSS
VL: B1 VL with P15Q, T19A, R28S, T31S, D50A, K53N, G70D, V85I

EC50 [9]: 3.92 nM
B3: 3.40.19-uAb-IgG4L (antibody, V domains shown)
VH: QLQLQESGPGLVKPSETLSLTCTVSGDSISSTSYYWGWIRQPPGKGLEWIGSFYYSGSTYYNPSLKSRVTISVDTSKNQFSLKLNSVTAADTAVYYCARMQLWSYDVDVWGQGTTVTVSS
VL: QSALTQPASVSGSPGQSITISCTGTSSDVGGYDYVAWYQQHPGKVPKLMIYDVSERPSGVSNRFSGSKSGNTASLTISGLQAEDEADYYCSSYTSTTTLVVFGGGTKLSVL
